# Results from patent publication US20160272693A1 (ZEALAND PHARMA A S, published 2016).
# *1 amine or outer side, *2 acyl side, *3 side chain or, on linkers, in order; H or OH if unused. Bridges are numbered along the chain shown (N, C = ends). [ ]: non-standard residue; d: D form. The star is where a group is joined. C20 diacid = O=C(O)CCCCCCCCCCCCCCCCCCC(=O)*; γGlu = O=C(O)[C@H](CCC(=O)[*:2])N[*:1]; Hyp = O=C(O)[C@@H]1C[C@@H](O)CN1; NMeI = CC[C@H](C)[C@H](NC)C(=O)O; Sar = CNCC(=O)O
# T1: human amylin receptor 3 (hAMYR3), hCTR2 co-expressed with human receptor activity modifying protein 3 (hRAMP3) (human, UniProt P30988 25-474; O60896 24-148)
# T1 sequence (looked up) 1: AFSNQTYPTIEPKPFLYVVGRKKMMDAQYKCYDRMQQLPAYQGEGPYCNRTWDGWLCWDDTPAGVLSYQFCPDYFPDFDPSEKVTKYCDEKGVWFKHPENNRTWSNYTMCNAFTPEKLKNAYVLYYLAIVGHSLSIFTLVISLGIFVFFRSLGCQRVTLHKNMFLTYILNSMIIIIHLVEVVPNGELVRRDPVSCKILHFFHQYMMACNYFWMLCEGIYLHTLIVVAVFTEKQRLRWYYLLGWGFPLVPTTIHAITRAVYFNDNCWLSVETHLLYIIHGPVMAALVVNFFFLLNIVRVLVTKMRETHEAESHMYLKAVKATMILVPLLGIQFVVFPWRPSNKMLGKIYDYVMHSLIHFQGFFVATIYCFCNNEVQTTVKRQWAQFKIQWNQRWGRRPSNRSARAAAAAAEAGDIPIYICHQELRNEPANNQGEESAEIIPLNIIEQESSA
# T1 sequence (looked up) 2: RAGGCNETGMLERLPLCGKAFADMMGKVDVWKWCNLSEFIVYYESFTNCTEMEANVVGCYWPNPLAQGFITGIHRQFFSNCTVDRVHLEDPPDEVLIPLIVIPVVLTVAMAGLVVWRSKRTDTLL
# B1: [19CD]-isoGlu-R-C( )-NTAT-C( )-ATERLADFLQRSSF-Gly(Me)-A-Ile(Me)-LSSTEVGSNTP-NH2 (Compd. 66) (peptide)
# peptide: {C20 diacid-γGlu}-RCNTATCATERLADFLQRSSF[Sar]A[NMeI]LSSTEVGSNTP-NH2
# modifications: disulfide 2-7
# SMILES: CC[C@H](C)[C@@H](C(=O)N[C@@H](CC(C)C)C(=O)N[C@@H](CO)C(=O)N[C@@H](CO)C(=O)N[C@H](C(=O)N[C@@H](CCC(=O)O)C(=O)N[C@H](C(=O)NCC(=O)N[C@@H](CO)C(=O)N[C@@H](CC(N)=O)C(=O)N[C@H](C(=O)N1CCC[C@H]1C(N)=O)[C@@H](C)O)C(C)C)[C@@H](C)O)N(C)C(=O)[C@H](C)NC(=O)CN(C)C(=O)[C@H](Cc1ccccc1)NC(=O)[C@H](CO)NC(=O)[C@H](CO)NC(=O)[C@H](CCCNC(=N)N)NC(=O)[C@H](CCC(N)=O)NC(=O)[C@H](CC(C)C)NC(=O)[C@H](Cc1ccccc1)NC(=O)[C@H](CC(=O)O)NC(=O)[C@H](C)NC(=O)[C@H](CC(C)C)NC(=O)[C@H](CCCNC(=N)N)NC(=O)[C@H](CCC(=O)O)NC(=O)[C@@H](NC(=O)[C@H](C)NC(=O)[C@@H]1CSSC[C@H](NC(=O)[C@H](CCCNC(=N)N)NC(=O)CC[C@H](NC(=O)CCCCCCCCCCCCCCCCCCC(=O)O)C(=O)O)C(=O)N[C@@H](CC(N)=O)C(=O)N[C@@H]([C@@H](C)O)C(=O)N[C@@H](C)C(=O)N[C@@H]([C@@H](C)O)C(=O)N1)[C@@H](C)O
# B2: [19CD]-isoGlu-R-C( )-NTAT-C( )-ATERLADFLQRSSF-Gly(Me)-A-Ile(Me)-LSSTEVGSNT-Hyp-NH2 (Compd. 68) (peptide)
# peptide: {C20 diacid-γGlu}-RCNTATCATERLADFLQRSSF[Sar]A[NMeI]LSSTEVGSNT[Hyp]-NH2
# modifications: disulfide 2-7
# SMILES: CC[C@H](C)[C@@H](C(=O)N[C@@H](CC(C)C)C(=O)N[C@@H](CO)C(=O)N[C@@H](CO)C(=O)N[C@H](C(=O)N[C@@H](CCC(=O)O)C(=O)N[C@H](C(=O)NCC(=O)N[C@@H](CO)C(=O)N[C@@H](CC(N)=O)C(=O)N[C@H](C(=O)N1C[C@H](O)C[C@H]1C(N)=O)[C@@H](C)O)C(C)C)[C@@H](C)O)N(C)C(=O)[C@H](C)NC(=O)CN(C)C(=O)[C@H](Cc1ccccc1)NC(=O)[C@H](CO)NC(=O)[C@H](CO)NC(=O)[C@H](CCCNC(=N)N)NC(=O)[C@H](CCC(N)=O)NC(=O)[C@H](CC(C)C)NC(=O)[C@H](Cc1ccccc1)NC(=O)[C@H](CC(=O)O)NC(=O)[C@H](C)NC(=O)[C@H](CC(C)C)NC(=O)[C@H](CCCNC(=N)N)NC(=O)[C@H](CCC(=O)O)NC(=O)[C@@H](NC(=O)[C@H](C)NC(=O)[C@@H]1CSSC[C@H](NC(=O)[C@H](CCCNC(=N)N)NC(=O)CC[C@H](NC(=O)CCCCCCCCCCCCCCCCCCC(=O)O)C(=O)O)C(=O)N[C@@H](CC(N)=O)C(=O)N[C@@H]([C@@H](C)O)C(=O)N[C@@H](C)C(=O)N[C@@H]([C@@H](C)O)C(=O)N1)[C@@H](C)O
# B3: [19CD]-isoGlu-R-C( )-PTAT-C( )-ATERLADFLQRSSF-Gly(Me)-A-Ile(Me)-LSSTEVGSNTP-NH2 (Compd. 67) (peptide)
# peptide: {C20 diacid}-[γGlu]RCPTATCATERLADFLQRSSF[Sar]A[NMeI]LSSTEVGSNTP-NH2
# modifications: disulfide 3-8
# SMILES: CC[C@H](C)[C@@H](C(=O)N[C@@H](CC(C)C)C(=O)N[C@@H](CO)C(=O)N[C@@H](CO)C(=O)N[C@H](C(=O)N[C@@H](CCC(=O)O)C(=O)N[C@H](C(=O)NCC(=O)N[C@@H](CO)C(=O)N[C@@H](CC(N)=O)C(=O)N[C@H](C(=O)N1CCC[C@H]1C(N)=O)[C@@H](C)O)C(C)C)[C@@H](C)O)N(C)C(=O)[C@H](C)NC(=O)CN(C)C(=O)[C@H](Cc1ccccc1)NC(=O)[C@H](CO)NC(=O)[C@H](CO)NC(=O)[C@H](CCCNC(=N)N)NC(=O)[C@H](CCC(N)=O)NC(=O)[C@H](CC(C)C)NC(=O)[C@H](Cc1ccccc1)NC(=O)[C@H](CC(=O)O)NC(=O)[C@H](C)NC(=O)[C@H](CC(C)C)NC(=O)[C@H](CCCNC(=N)N)NC(=O)[C@H](CCC(=O)O)NC(=O)[C@@H](NC(=O)[C@H](C)NC(=O)[C@@H]1CSSC[C@H](NC(=O)[C@H](CCCNC(=N)N)NC(=O)CC[C@H](NC(=O)CCCCCCCCCCCCCCCCCCC(=O)O)C(=O)O)C(=O)N2CCC[C@H]2C(=O)N[C@@H]([C@@H](C)O)C(=O)N[C@@H](C)C(=O)N[C@@H]([C@@H](C)O)C(=O)N1)[C@@H](C)O
# Biological target: T1, human amylin receptor 3 (hAMYR3), hCTR2 …
# Test: cell-based or functional assay
row,Binder,hAMYR3 EC50 (nM); cAMP induction [nM]
1,B1,0.3
2,B2,0.29
3,B3,0.65
